The text below walks through data of patent US20210332115A1 (Sanofi, published 2021).

B1: VH6/Vk7-IgG4v2-CHO (antibody)
heavy chain: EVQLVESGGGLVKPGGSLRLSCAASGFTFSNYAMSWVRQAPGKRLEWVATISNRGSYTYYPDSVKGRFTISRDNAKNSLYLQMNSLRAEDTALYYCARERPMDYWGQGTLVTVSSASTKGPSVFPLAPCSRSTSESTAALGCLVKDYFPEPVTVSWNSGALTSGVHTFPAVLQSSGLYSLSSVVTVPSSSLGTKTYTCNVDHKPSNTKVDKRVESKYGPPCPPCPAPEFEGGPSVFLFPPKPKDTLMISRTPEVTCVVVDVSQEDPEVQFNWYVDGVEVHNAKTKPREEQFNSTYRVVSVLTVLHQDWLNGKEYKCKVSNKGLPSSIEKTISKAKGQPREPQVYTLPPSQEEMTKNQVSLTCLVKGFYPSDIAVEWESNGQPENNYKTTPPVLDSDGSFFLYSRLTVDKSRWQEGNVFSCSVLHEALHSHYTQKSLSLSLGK
light chain: DIQMTQSPSTLSASVGDRVTITCKASQDVGTAVAWYQQKPGKAPKLLIYWASTRHTGVPDRFSGSGSGTDFTLTISSLQAEDFAVYFCHQHSSNPLTFGQGTKLEIKRTVAAPSVFIFPPSDEQLKSGTASVVCLLNNFYPREAKVQWKVDNALQSGNSQESVTEQDSKDSTYSLSSTLTLSKADYEKHKVYACEVTHQGLSSPVTKSFNRGEC
B2: VH4/Vκ6-IgG4v1 (antibody)
heavy: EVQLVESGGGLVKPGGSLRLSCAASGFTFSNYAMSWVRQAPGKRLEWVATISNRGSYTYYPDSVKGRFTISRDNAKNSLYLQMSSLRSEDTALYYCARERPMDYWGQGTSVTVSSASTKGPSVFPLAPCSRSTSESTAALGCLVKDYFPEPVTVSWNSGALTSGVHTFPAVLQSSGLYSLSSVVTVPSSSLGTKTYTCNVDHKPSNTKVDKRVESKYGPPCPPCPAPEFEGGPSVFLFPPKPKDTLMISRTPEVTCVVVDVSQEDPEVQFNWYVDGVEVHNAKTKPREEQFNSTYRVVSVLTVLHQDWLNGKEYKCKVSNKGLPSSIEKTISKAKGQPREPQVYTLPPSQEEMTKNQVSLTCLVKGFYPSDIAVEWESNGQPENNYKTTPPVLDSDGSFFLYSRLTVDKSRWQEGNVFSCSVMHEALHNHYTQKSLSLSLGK
light: B1 light chain with Q3V, T10F, S63T, A80S
notes: also called VH4/VK6; V46/VK6-IgG4v1
B3: VH6/Vκ7-IgG4v1 (antibody)
heavy: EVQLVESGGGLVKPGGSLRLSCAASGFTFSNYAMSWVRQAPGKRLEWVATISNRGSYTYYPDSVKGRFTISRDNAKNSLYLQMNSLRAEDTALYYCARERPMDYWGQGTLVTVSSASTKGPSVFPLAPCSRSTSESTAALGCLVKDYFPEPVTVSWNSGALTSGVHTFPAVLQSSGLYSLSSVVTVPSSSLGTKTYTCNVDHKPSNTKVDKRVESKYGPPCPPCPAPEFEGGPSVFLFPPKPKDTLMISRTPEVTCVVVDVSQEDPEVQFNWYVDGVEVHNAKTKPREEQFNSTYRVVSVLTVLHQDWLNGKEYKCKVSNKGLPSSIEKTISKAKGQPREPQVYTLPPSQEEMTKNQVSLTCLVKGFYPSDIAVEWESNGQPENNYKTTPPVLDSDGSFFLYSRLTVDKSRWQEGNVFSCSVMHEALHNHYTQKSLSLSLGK
light: B1 light chain
notes: also called VH6/VK7; VH6/VK7-IgG4v1
B4: VH4/Vκ7 (antibody, V domains shown)
VH: EVQLVESGGGLVKPGGSLRLSCAASGFTFSNYAMSWVRQAPGKRLEWVATISNRGSYTYYPDSVKGRFTISRDNAKNSLYLQMSSLRSEDTALYYCARERPMDYWGQGTSVTVSS
VL: DIQMTQSPSTLSASVGDRVTITCKASQDVGTAVAWYQQKPGKAPKLLIYWASTRHTGVPDRFSGSGSGTDFTLTISSLQAEDFAVYFCHQHSSNPLTFGQGTKLEIK
notes: Redesigned variant; cloned into the appropriate expression vector (IgG4v1 and kappa were used in the first round)
B5: VH7/Vκ7 (antibody, V domains shown)
VH: B4 VH with A40T, G42E, S84N, S88A, S110L
VL: B4 VL
notes: Redesigned variant; cloned into the appropriate expression vector (IgG4v1 and kappa were used in the first round); also called VH7/VκK7
B6: VH6/Vκ6 (antibody, V domains shown)
VH: B4 VH with S84N, S88A, S110L
VL: B4 VL with Q3V, T10F, S63T, A80S
notes: as for B4

Changes are numbered by the printed parent chain.

The target in the first experiment is T1, Homo sapiens factor Bb protein (human, UniProt P00751 260-764).
T1 construct: Bought from CompTech (A155); also called complement factor Bb; human factor Bb
T1 sequence (P00751 260-764 limits assumed): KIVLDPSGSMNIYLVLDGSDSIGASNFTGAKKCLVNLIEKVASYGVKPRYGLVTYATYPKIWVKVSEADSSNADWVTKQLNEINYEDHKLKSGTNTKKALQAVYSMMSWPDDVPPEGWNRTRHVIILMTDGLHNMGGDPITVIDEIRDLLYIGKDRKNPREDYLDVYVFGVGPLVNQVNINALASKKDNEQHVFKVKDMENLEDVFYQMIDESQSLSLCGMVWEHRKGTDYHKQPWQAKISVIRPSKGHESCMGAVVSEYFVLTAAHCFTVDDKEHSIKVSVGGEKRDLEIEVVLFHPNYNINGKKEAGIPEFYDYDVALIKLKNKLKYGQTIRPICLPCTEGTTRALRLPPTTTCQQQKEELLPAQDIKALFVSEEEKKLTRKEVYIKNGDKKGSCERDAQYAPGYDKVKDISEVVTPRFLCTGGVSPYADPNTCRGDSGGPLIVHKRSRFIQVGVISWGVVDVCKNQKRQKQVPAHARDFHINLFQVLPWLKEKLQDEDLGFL
In words: BLI, multi-cycle kinetics, antibody loaded on anti-hIgG Fc sensors, human factor Bb in solution (100 nM to 0.14 nM), 1:1 fit. As to the method: Multicycle kinetic analysis was performed on CHO and HEK-produced VH6/VK7-IgG4v2 antibodies using biolayer interferometry. Antibodies were diluted to 10 μg/mL in PBS+ 0.02%. Tween20, 0.1% BSA, 0.05% sodium azide and loaded onto anti-hIgG Fc sensors (pre-equilibrated in the same buffer) for 90 seconds followed by a 60-minute baseline in buffer. Binding of a concentration series of human factor Bb (Complement Technologies, #A155), ranging from 100 nM to 0.14 nM in 2-fold dilutions, was measured in a 300 second association in the same buffer, followed by a 300 second dissociation step.
(In general: Biolayer interferometry detects binding as a change in optical thickness at a sensor tip.)
For B1, binding was characterised by a dissociation constant (Kd) of 2.7 nM.

Another experiment has as its target T1, Homo sapiens factor Bb protein. In words: BLI Octet, biotinylated antibody on SA biosensors. As to the method:
(§1) Briefly, biotinylated antibodies were loaded onto SA Biosensors equilibrated in PBS, 0.1% BSA, 0.02% Tween-20 (assay buffer). After a 60 second baseline in assay buffer, antibodies were loaded onto the probes for 180 seconds, followed by another 60 second baseline. Association to human (Comptech) or cynomolgus monkey factor Bb (purified in-house) was measured for 300 seconds, followed by a 300 second dissociation. Kinetic parameters were calculated by the Octet Analysis software using a 1:1 binding model.
To determine whether the modification of the Fc portion of the antibodies affected affinity and species cross-reactivity, VH4/VK6-IgG4v2 and VH6/VK7-IgG4v2 were tested alongside their parental antibodies, VH4/VK6 and VH6/VK7, respectively, for their ability to bind human and cynomolgus monkey factor Bb by BLI. VH4/VK6-IgG4v2 and VH6/VK7-IgG4v2 contain mutations in the Fc region that increase the affinity for an Fc receptor.
In the case of B2, the Kd (in general, a measure of binding affinity in units of concentration) was found to be 1.6 nM.

Regarding B3, binding was put at a Kd of 1.7 nM.

The next experiment shares this target. Briefly: competition ELISA on coated factor Bb; competitor murine parental antibody. As for the experimental part:
Factor Bb was diluted in 1× PBS to 1.0 μg/ml and 100 μl/well was coated overnight at 4° C. on a 96-well ELISA plate. The following day the plates were blocked for two hours at room temperature with 1% casein/PBS before washing 2× with PBS pH 7.4. In a 96-well dilution plate a fixed concentration of murine parental antibody (0.5 μg/ml, final concentration) was added in equal volume to a four-fold titration series of test antibody (starting from 45 μg/ml to 0.01 μg/ml, final concentration) diluted in blocking buffer. After washing the plate 3× with PBS-T, 100 μl of chimeric/test antibody mix was added to the ELISA plate. After incubating at room temperature for one hour, the plate was washed 3× with PBS-T and 100 μl of anti-mouse IgG Fc-Specific HRP (Sigma, Dorset, UK) diluted 1:1000 in PBS-T was applied for one hour at room temperature to detect bound mouse antibody. For color development, the plate was washed 3× with PBS-T following which 100 μl of TMB substrate was added and incubated for approximately five minutes at room temperature. The reaction was stopped with 50 μl of 3.0 M hydrochloric acid and absorbance was read immediately using a DYNEX ® plate reader at 450 nm.
IC50 values were calculated for each variant and relative IC50 values were calculated by dividing the IC50 of the humanized variant by that of the chimeric antibody assayed on the same plate (Table 11).
For orientation: An ELISA detects its analyte on a solid surface through an enzyme-linked reagent.
In the case of B4, the IC50 – broadly, the concentration needed to halve the response being measured – amounted to 0.75 nM.

On to B5, for which the IC50 was 1.43 nM.

For the molecule B6, the IC50 is 0.93 nM.

Turning to B2, the IC50 worked out at 1.02 nM.

As to B3, the IC50 was determined as 0.82 nM.

The target is the same in a further experiment. In words: SPR single cycle kinetics; ratio against VH0/Vκ0. As for the experimental part: All single cycle kinetic experiments were run at 25° C. with HBS-P+running buffer (pH 7. 4) (GE Healthcare, Little Chalfont, UK).
(§2) Antibodies were diluted in running buffer to a final concentration of 1 μg/ml, based on concentrations assessed by ELISA titer. At the start of each cycle, antibodies were loaded onto Fc2, Fc3 and Fc4 of the Protein A chip (GE Healthcare, Little Chalfont, UK). IgGs were captured at a flow rate of 10 μl/min to give an immobilization level (RL) of ˜63 RU, the theoretical value to obtain an Rmax of ˜50 RU. The surface was then allowed to stabilize. Single cycle kinetic data was obtained with factor Bb (CompTech, Tyler, USA) as the analyte at a flow rate of 30 μl/min to minimize any potential mass transport limitations. Multiple repeats with the reference chimeric antibody were performed to check the stability of the surface and analyte over the kinetic cycles. The signal from the reference channel Fc1 (no antibody) was subtracted from that of Fc2, Fc3 and Fc4 to correct for differences in non-specific binding to a reference surface. A four point, two-fold dilution range from 0. 78 nM to 6. 25 nM factor Bb without regeneration between each concentration was used. The association phase for the four injections of increasing concentrations of factor Bb was monitored for 200 seconds each time and a single dissociation phase was measured for 200 seconds following the last injection of factor Bb. Regeneration of the Protein A surface was conducted using two injections of 10 mM glycine-HCL pH 1. 5.
Single cycle kinetics using cell culture supernatants were performed as described above. […] The relative KD was calculated by dividing the KD of the VH0/Vκ0 reference antibody by that of the humanized variant assayed in the same experiment.
For B4, the “Relative KD” value stood at 1.32.

On to B5, for which the “Relative KD” value was determined as 1.37.

As to B6, the “Relative KD” value came out at 2.17.

As to B2, the “Relative KD” value was determined as 1.25.

For B3, the “Relative KD” value stood at 1.98.

The next experiment has the same target. In words: cell-based or functional assay.
For B4, the “AP Assay IC50” value turned out to be 23 nM.

Turning to B5, the “AP Assay IC50” value is 25 nM.

As for B6, the “AP Assay IC50” value came to 19 nM.

With B2, the “AP Assay IC50” value is 22 nM.

Take B3: the “AP Assay IC50” value was determined as 21 nM.

The target is the same in the next experiment. Briefly: BLI Octet, biotinylated antibody on SA biosensors. The source holds these as a separate data set. As for the experimental part: as §1
The molecule B4 came in with an equilibrium dissociation constant (Kd) of 1.9 nM.

Turning to B5, the dissociation constant Kd turned out to be 2.9 nM.

B6: binding was put at a Kd of 1.9 nM.

Regarding B2, binding was characterised by a dissociation constant (Kd) of 1.6 nM.

Molecule B3 returned a Kd of 1.9 nM.

For the next experiment the target is unchanged. In words: SPR multi-cycle kinetics, IgG on Protein A chip, factor Bb analyte. As for the experimental part:
(§3) Antibodies were diluted in running buffer to a final concentration of 0.5 μg/ml. At the start of each cycle, antibodies were loaded onto Fc2, Fc3 and Fc4 of the Protein A chip (GE Healthcare, Little Chalfont, UK). IgGs were captured at a flow rate of 10 μl/min to give an immobilisation level (RL) of ˜63 RU, the theoretical value to obtain an Rmax of ˜50 RU. The surface was then allowed to stabilize. Kinetic data was obtained with factor Bb as analyte and using a flow rate of 30 μl/min to minimize any potential mass transfer effects. Multiple repeats of a blank and a repeat of a single concentration of the analyte were programmed into the kinetic run in order to check the stability of both the surface and analyte over the kinetic cycles. For kinetic analysis, a two-fold dilution range was selected from 12. 5 nM to 0. 391 nM factor Bb. The association phase of factor Bb was monitored for 360 seconds and the dissociation phase was monitored for 600 seconds. Regeneration of the Protein A surface was conducted using two injections of 10 mM glycine-HCL pH 1. 5. The signal from the reference channel Fc1 was subtracted from that of Fc2, Fc3 and Fc4 to correct for differences in non-specific binding to a reference surface, and a global Rmax parameter was used in the 1-to-1 binding model.
(§4) The sensorgrams and fitted data for the binding of chimeric antibodies and humanized variants to factor Bb are shown in FIGS. 4A-4C. The relative KD was calculated by dividing the KD of the humanized variants by that of the chimeric antibody on the same chip. The kinetic parameters measured for the interaction of factor Bb with chimeric antibodies and humanized variants are shown in Table 10.
In the case of B4, the affinity, expressed as Kd, was 2.61 nM; the koff – broadly, the rate constant with which the complex falls apart – is 0.000841 s⁻¹; the kon (in general, the second-order rate constant of association) came out at 322000 M⁻¹ s⁻¹.

Consider B5, for which binding was characterised by a dissociation constant (Kd) of 9.51 nM, the koff was determined as 0.00211 s⁻¹ and the kon came out at 222000 M⁻¹ s⁻¹.

Turning to B6, binding was put at a Kd of 5.17 nM, the koff was found to be 0.0013 s⁻¹ and the kon is 251000 M⁻¹ s⁻¹.

Take B2: binding was characterised by a dissociation constant (Kd) of 2.14 nM, the off-rate (koff) is 0.000805 s⁻¹ and the kon is 376000 M⁻¹ s⁻¹.

Turning to B3, the affinity, expressed as Kd, was 5.7 nM; the dissociation rate constant (koff) came out at 0.00124 s⁻¹; the kon was found to be 218000 M⁻¹ s⁻¹.

The target is the same in a further experiment. Briefly: SPR single cycle kinetics, IgG on Protein A chip, factor Bb analyte. As to the method: In order to assess the binding of all humanized variants, single cycle kinetic analysis was performed on supernatants from transfected cell cultures. […] All single cycle kinetic experiments were run at 25° C. with HBS-P+running buffer (pH 7. 4) (GE Healthcare, Little Chalfont, UK).
as §2
Single cycle kinetics using cell culture supernatants were performed as described above.
For the molecule B4, binding was characterised by a dissociation constant (Kd) of 2.34 nM, the koff turned out to be 0.000903 s⁻¹ and the kon came out at 386000 M⁻¹ s⁻¹.

Consider B5, for which the Kd is 2.42 nM, the koff is 0.0117 s⁻¹ and the kon turned out to be 4.83e+06 M⁻¹ s⁻¹.

Turning to B6, the Kd came out at 3.84 nM, the koff turned out to be 0.00158 s⁻¹ and the kon is 412000 M⁻¹ s⁻¹.

With B2, binding was characterised by a dissociation constant (Kd) of 2.22 nM, the koff was found to be 0.000859 s⁻¹ and the kon is 387000 M⁻¹ s⁻¹.

In turn, B3 yielded an equilibrium dissociation constant (Kd) of 3.51 nM, a koff of 0.00221 s⁻¹ and a kon of 630000 M⁻¹ s⁻¹.

A further experiment shares this target. Briefly: SPR multi-cycle kinetics; ratio against VH0/Vκ0 on the same chip. As for the experimental part: as §3, §4
On to B4, for which the “Relative KD” value was 1.31.

For B5, the “Relative KD” value was determined as 5.01.

Take B6: the “Relative KD” value came to 2.71.

As to B2, the “Relative KD” value turned out to be 1.08.

With B3, the “Relative KD” value came out at 2.98.
